Experimental findings from patent US20050037969A1 (ARBOR VITA, published 2005) are described below.

Ends that are not written are not given here. * marks the point of attachment. Biotin = O=C1N[C@H]2[C@H](CS[C@H]2CCCCC(=O)*)N1

Sequences and labels used below:
T1: GST-41.8 kD protein (KIAA0751) PDZ domain fusion protein (Mus musculus (Mouse), UniProt Q9EQZ7 682-763)
T1 construct: also called 41 kd; hypoth; not shown: glutathione S-transferase encoded by vector pGEX-3X (Pharmacia)
T1 sequence: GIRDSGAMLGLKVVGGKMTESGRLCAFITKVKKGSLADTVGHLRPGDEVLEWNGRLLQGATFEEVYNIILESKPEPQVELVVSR

T2: KIAA0807 (PDZ domain)-GST fusion protein (human, UniProt Q6P0Q8 1104-1192)
T2 construct: also called K807; KIAA807; not shown: glutathione S-transferase encoded by vector pGEX-3X (Pharmacia)
T2 sequence: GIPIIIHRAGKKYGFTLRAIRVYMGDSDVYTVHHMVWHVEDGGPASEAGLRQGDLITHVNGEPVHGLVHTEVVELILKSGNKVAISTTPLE

T3: GST-AF6 PDZ domain fusion protein (Homo sapiens (Human), UniProt P55196 1001-1093)
T3 construct: also called af-6 protein; not shown: glutathione S-transferase encoded by vector pGEX-3X (Pharmacia)
T3 sequence: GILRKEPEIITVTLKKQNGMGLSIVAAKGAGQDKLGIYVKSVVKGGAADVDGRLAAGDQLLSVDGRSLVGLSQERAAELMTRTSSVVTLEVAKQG

T4: GST-RGS12 PDZ domain fusion protein (human, UniProt O14924 17-85)
T4 construct: also called human regulator of G-protein signalling 12; not shown: glutathione S-transferase encoded by vector pGEX-3X (Pharmacia)
T4 sequence: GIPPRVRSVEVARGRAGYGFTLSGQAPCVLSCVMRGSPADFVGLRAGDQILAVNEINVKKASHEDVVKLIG

B1: Mannose receptor C-terminal peptide AA31L (peptide)
peptide: Biotin-GTSDMKDLVGNIEQNEHSVI
notes: Only the last four residues are seen in the excerpts
B2: PAG C-terminal peptide AA58L, biotinylated (peptide)
peptide: Biotin-KENDYESISDLQQGRDITRL
notes: also called Phosphoprotein Associated with GEMs
B3: CC CKR-3 C-terminal peptide AA43L (peptide)
peptide: Biotin-LERTSSVSPSTAEPELSIVF
notes: as for B1
B4: CD114 (G-CSFR) C-terminal peptide AA27L (peptide)
peptide: Biotin-LNFPLLQGIRVHGMEALGSF
notes: as for B1
B5: CD62E C-terminal peptide AA48L (peptide)
peptide: Biotin-SSSQSLESDGSYQKPSYIL
notes: as for B1
B6: V-gated Ca2+ channel C-terminal peptide AA46L (peptide)
peptide: Biotin-SSGGRARHSYHHPDQDHWC
notes: Marked (S), sticky peptide with high background; also called V-gated Ca2+ channel (S)
B7: CD5 C-terminal peptide AA49L (peptide)
peptide: Biotin-SMQPDNSSDSDYDLHGAQRL
notes: as for B1
B8: CDw137 (4-1BB ILA) C-terminal peptide AA21L (peptide)
peptide: Biotin-QEEDGCSCRFPEEEEGGCEL
modifications: cysteine pairing not given here
notes: Marked (S), sticky peptide with high background; also called CDw137 (4-1BB ILA) (S)
B9: CC CKR-2 C-terminal peptide AA42L (peptide)
peptide: Biotin-GKGKSIGRAPEASLQDKEGA
notes: as for B1
B10: CC CKR-4 C-terminal peptide AA44L (peptide)
peptide: Biotin-DTPSSSYTQSTMDHDLHDAL
notes: as for B1
B11: CC CKR-1R C-terminal peptide AA41L (peptide)
peptide: Biotin-LERVSSTSPSTGEHELSAGF
notes: as for B1

T5 sequence (P31016 other isoform, or with tags, fused parts or gaps): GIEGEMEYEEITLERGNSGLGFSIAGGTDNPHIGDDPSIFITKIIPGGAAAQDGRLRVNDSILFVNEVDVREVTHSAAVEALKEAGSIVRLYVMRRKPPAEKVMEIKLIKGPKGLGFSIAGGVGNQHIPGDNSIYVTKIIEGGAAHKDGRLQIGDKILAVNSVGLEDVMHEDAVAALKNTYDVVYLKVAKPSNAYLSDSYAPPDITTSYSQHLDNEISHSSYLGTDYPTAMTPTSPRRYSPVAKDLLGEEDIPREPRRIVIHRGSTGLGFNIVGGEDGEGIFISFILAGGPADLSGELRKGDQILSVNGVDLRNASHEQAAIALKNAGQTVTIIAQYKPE

One experiment concerns the target T5, GST-PSD95 fusion protein (PDZ domains 1-3) (human, UniProt P31016 56-395 (rat entry)).
T5 construct: also called human post-synaptic density protein 95; not shown: glutathione S-transferase encoded by vector pGEX-3X (Pharmacia)
The experiment is described as follows: G assay: biotinylated peptide on plate-bound GST-PDZ fusion, streptavidin-HRP, OD 450 nm.
As for Biotin-VTSPNKHLGLVTPHKTELV [CD83 C-terminal peptide AA47L, biotinylated], the binding result was “binds”.
Same read-out and setting: to Biotin-KKGTYLTDETHREVKFTSL [CD46 (Form 1) C-terminal peptide AA10L, biotinylated] belongs “binds”; to Biotin-TTNNNPNSAVNIKKIFTDV [KV1.3 C-terminal peptide AA33L, biotinylated], “binds”.

Another experiment concerns the target T1, GST-41.8 kD protein (KIAA0751) PDZ …. The experiment is described as above.
As for Biotin-SVFSIPTLWSPWPPSSSSQL (also called CD3η; CD3-eta) [CD3n C-terminal peptide AA4L, biotinylated], the binding result is “binds”.
The same measure, in the same setting: then Biotin-PYGTAMEKAQLKPPATSDA (also called CD49E (alpha-4)) [CD49E C-terminal peptide AA11L, biotinylated], with “binds”.

The next experiment shares this target. The experiment is described as follows: A/G assays.
For the molecule Biotin-ISKATPALPTVSISSSAEV (also called AA1L-R) [Clasp-1 C-terminal peptide AA1L, biotinylated], the binding result is reported as “no binding”.
In the case of B1, the binding result is reported as “no binding”.
Turning to B2, the binding result is listed as “no binding”.
The same measure, in the same setting: to B3 belongs “no binding”; to B4, “no binding”; to Biotin-KKGTYLTDETHREVKFTSL [CD46 (Form 1) C-terminal peptide AA10L, biotinylated], “no binding”.
Regarding Biotin-ENLAPVTTFGKTNGYIA (also called CD148 (DEP-1)) [CD148 C-terminal peptide AA19L, biotinylated], the binding result is “no binding”.
For B5, the binding result was “no binding”.
Same read-out and setting: then B6, with “no binding”; and Biotin-AWDDSARAAGGQGLHVTAL [LPAP C-terminal peptide AA30L, biotinylated], with “no binding”.
For the molecule Biotin-SSKSKSSEESQTFFGLYKL (not fully specified, also called FasLigand; Fas ligand) [FasL C-terminal peptide AA23L-M, biotinylated], the binding result is given as “no binding”.
The same measure, in the same setting: to Biotin-QFMTADETRNLQNVDMKIGV (also called CD44 (long form)) [CD44 C-terminal peptide AA9L, biotinylated] belongs “no binding”; to B7, “no binding”.
The same measure, in the same setting: then Biotin-QATSENGHSARQHVVADTEL [CD34 C-terminal peptide AA7L, biotinylated], with “no binding”.
The same measure, in the same setting: to Biotin-DLGNMEENKKLEENNHKTEA (also called CD166 (CD6L)) [CD166 C-terminal peptide AA20L, biotinylated] belongs “no binding”.
As to B8, the binding result is listed as “no binding”.

The target in the next experiment is T5, GST-PSD95 fusion protein (PDZ domains …). The experiment is described as follows: A/G assays.
Take B1: the binding result was “no binding”.
The same measure, in the same setting: to B2 belongs “no binding”.
Same read-out and setting: then B3, with “no binding”.
As for B4, the binding result is reported as “no binding”.
The same measure, in the same setting: to Biotin-ENLAPVTTFGKTNGYIA (also called CD148 (DEP-1)) [CD148 C-terminal peptide AA19L, biotinylated] belongs “no binding”; to Biotin-SPQPDSTDNDDYDDISAA [CD6 C-terminal peptide AA6L, biotinylated], “no binding”; to B5, “no binding”.
Still for that read-out and setting: then B6, with “no binding”; and Biotin-AWDDSARAAGGQGLHVTAL [LPAP C-terminal peptide AA30L, biotinylated], with “no binding”.
Same read-out and setting: to Biotin-HKAEIHAQPSDKERLTSDA (also called CD49F (Aform, alpha6)) [CD49F C-terminal peptide AA12L, biotinylated] belongs “no binding”.
For the molecule Biotin-SSKSKSSEESQTFFGLYKL (not fully specified, also called FasLigand; Fas ligand) [FasL C-terminal peptide AA23L-M, biotinylated], the binding result was “no binding”.
Same read-out and setting: to Biotin-QFMTADETRNLQNVDMKIGV (also called CD44 (long form)) [CD44 C-terminal peptide AA9L, biotinylated] belongs “no binding”; to B7, “no binding”; to B8, “no binding”.

The target in a further experiment is T1, GST-41.8 kD protein (KIAA0751) PDZ …. Put plainly: G assay: biotinylated peptide on plate-bound GST-PDZ fusion, OD 450 nm; no GST-alone bar on the sheet.
In the case of B9, the binding result was “no binding”.
For Biotin-VTSPNKHLGLVTPHKTELV [CD83 C-terminal peptide AA47L, biotinylated], the binding result was “no binding”.
Take Biotin-YSATYSELEDPGEMSPPIDL (also called FceRlb; FcεRβI) [FceRIb C-terminal peptide AA25L, biotinylated]: the binding result is reported as “no binding”.
Regarding B10, the binding result is recorded as “no binding”.
As for Biotin-ARHRVTSYTSSSVNVSSNL [CDW128A (IL8RA) C-terminal peptide AA29.1L, biotinylated], the binding result is recorded as “no binding”.
With B11, the binding result is reported as “no binding”.

The target in another experiment is T5, GST-PSD95 fusion protein (PDZ domains …). Put plainly: G assay: biotinylated peptide on plate-bound GST-PDZ fusion, OD 450 nm.
Regarding B9, the binding result was “no binding”.
Same read-out and setting: to Biotin-YSATYSELEDPGEMSPPIDL (also called FceRlb; FcεRβI) [FceRIb C-terminal peptide AA25L, biotinylated] belongs “no binding”; to Biotin-PYGTAMEKAQLKPPATSDA (also called CD49E (alpha-4)) [CD49E C-terminal peptide AA11L, biotinylated], “no binding”; to B10, “no binding”.
Turning to Biotin-TSGTGHNQTRALRASESGI (also called CD97 (CD55L)) [CD97 C-terminal peptide AA14L, biotinylated], the binding result was “no binding”.
Still for that read-out and setting: to Biotin-ARHRVTSYTSSSVNVSSNL [CDW128A (IL8RA) C-terminal peptide AA29.1L, biotinylated] belongs “no binding”; to Biotin-DLGNMEENKKLEENNHKTEA (also called CD166 (CD6L)) [CD166 C-terminal peptide AA20L, biotinylated], “no binding”.
With B11, the binding result was “no binding”.

For another experiment, the target named is T2, KIAA0807 (PDZ domain)-GST fusion protein. Put plainly: A/G plate assays, Table 2 matrix.
Take Biotin-SVFSIPTLWSPWPPSSSSQL (also called CD3η; CD3-eta) [CD3n C-terminal peptide AA4L, biotinylated]: the binding result is given as “binds”.
Turning to B2, the binding result was “binds”.
The same measure, in the same setting: to Biotin-KKGTYLTDETHREVKFTSL [CD46 (Form 1) C-terminal peptide AA10L, biotinylated] belongs “binds”; to Biotin-AWDDSARAAGGQGLHVTAL [LPAP C-terminal peptide AA30L, biotinylated], “binds”; to Biotin-KDSRPSFVGSSSGHTSTTL (also called CDW128E (IL8RB)) [CDW128B (IL8RB) C-terminal peptide AA29.2L, biotinylated], “binds”.
Turning to Biotin-TTNNNPNSAVNIKKIFTDV [KV1.3 C-terminal peptide AA33L, biotinylated], the binding result is “binds”.

For a further experiment, the target named is T1, GST-41.8 kD protein (KIAA0751) PDZ …. The experiment is described as follows: A/G plate assays, Table 2 matrix.
In the case of Biotin-QGDPALQDAGDSSRKEYFI (also called GC) [Glycophorin C C-terminal peptide AA37L, biotinylated], the binding result was “binds”.
On to Biotin-SPQPDSTDNDDYDDISAA [CD6 C-terminal peptide AA6L, biotinylated], for which the binding result is given as “binds”.
On to Biotin-HKAEIHAQPSDKERLTSDA (also called CD49F (Aform, alpha6)) [CD49F C-terminal peptide AA12L, biotinylated], for which the binding result is on record as “binds”.
Still for that read-out and setting: then Biotin-TSGTGHNQTRALRASESGI (also called CD97 (CD55L)) [CD97 C-terminal peptide AA14L, biotinylated], with “binds”; and Biotin-KDSRPSFVGSSSGHTSTTL (also called CDW128E (IL8RB)) [CDW128B (IL8RB) C-terminal peptide AA29.2L, biotinylated], with “binds”; and Biotin-TTNNNPNSAVNIKKIFTDV [KV1.3 C-terminal peptide AA33L, biotinylated], with “binds”.

In another experiment the target is T5, GST-PSD95 fusion protein (PDZ domains …). The experiment is described as follows: A/G plate assays, Table 2 matrix.
On to Biotin-QGDPALQDAGDSSRKEYFI (also called GC) [Glycophorin C C-terminal peptide AA37L, biotinylated], for which the binding result is “binds”.
Consider Biotin-SVFSIPTLWSPWPPSSSSQL (also called CD3η; CD3-eta) [CD3n C-terminal peptide AA4L, biotinylated], for which the binding result is “binds”.
In the case of Biotin-KDSRPSFVGSSSGHTSTTL (also called CDW128E (IL8RB)) [CDW128B (IL8RB) C-terminal peptide AA29.2L, biotinylated], the binding result is “binds”.

In a further experiment the target is T3, GST-AF6 PDZ domain fusion protein. Put plainly: A/G plate assays, Table 2 matrix.
Take Biotin-QGDPALQDAGDSSRKEYFI (also called GC) [Glycophorin C C-terminal peptide AA37L, biotinylated]: the binding result was “binds”.

For the next experiment, the target named is T4, GST-RGS12 PDZ domain fusion protein. Put plainly: A/G plate assays, Table 2 matrix.
For Biotin-TTNNNPNSAVNIKKIFTDV [KV1.3 C-terminal peptide AA33L, biotinylated], the binding result is recorded as “binds”.
